Data reported in PMC4596477, “Interaction of Myosin Phosphatase Target Subunit (MYPT1) with Myosin Phosphatase-RhoA Interacting Protein (MRIP): A Role of Glutamic Acids in the Interaction” (PLoS ONE, 2015).
Blank lines part the entries; values can stand above or below the molecule they belong to.

Assays:
[1] = GST-tag, expressed in bacteria, after affinity purification
Method: Sedimentation velocity was performed over a range of concentrations of MRIP^545-878 (1.5–13.6 μM), MRIP^724-878 (4.7–42.3 μM), and MRIP^724-837 (7.5–67.1 μM) (Fig 2A).
To elucidate the stoichiometries of the MRIP peptides, the SedAnal program was used for curve fitting (Fig 2B). […] Diffusion contains important information about the shape of the molecule and that information is used in the data analysis. The recovery of samples after centrifugation is essentially 99% of the loading materials. […] The root mean square deviation (RMSD) of the fit was 0.010. […] The RMSD of the fit was 0.008.
We expressed and purified the MRIP peptide (residues 545–929) and the full-length MRIP protein using a chitin-binding tag and a GST-tag, respectively in bacteria.

[2] = tested on: full-length MYPT1; details: immunoprecipitation and immunoblotting; ref [7],[11],[12]; cited from earlier work
Source text: It is, however, not clear which residues of MRIP are critical for its binding to MYPT1.

[3] = AUC of MYPT1 peptides alone (concentration dependence, self-association); assay type: physicochemical; details: CC alone, 107 μM and 3-, 9-fold dilutions, MRIP^724-878 alone, 50 μM and 3-, pH 7.4, 20°C
Source text: To determine the minimal MRIP-binding region of MYPT1, AUC was employed to examine interactions between sub-domains of CCLR, CC (residues 924–990) and LR (residues 991–1030) with MRIP^724-878 (Fig 4A). CC is the putative coiled coil domain and LR contains 16 upstream amino acid residues (residues 991–1006) in addition to the leucine repeat (residues 1007–1028). MRIP^724-878 was chosen because of its good fit to a single component, single-species model. […] Global fitting of the mixture to a two-component model produced a good fit and the RMSD of the fit was 0.010 (Fig 4B; Fitting of CC).
Fig 4 LR contains sufficient residues for the MYPT1/MRIP interaction. […] CC; Concentration-normalized time derivative g(s*) plots of CC, MRIP^724-878, and equimolar mixtures of the two peptides: Black filled-in circles, an original CC alone (107 μM); dark gray filled-in circles, a 3-fold dilution of CC alone; light gray filled-in circles, a 9-fold dilution of CC alone; black filled-in triangles, an original MRIP^724-878 alone (50 μM); dark gray filled-in triangles, a 3-fold dilution of MRIP^724-878 alone; light gray filled-in triangles, a 9-fold dilution of MRIP^724-878 alone; a black line, an original equimolar mixture of MRIP^724-878/CC (50 μM each): a dark gray line, a 3-fold dilution of the mixture; a light gray line, a 9-fold dilution of the mixture. […]

[4] = target: LR; assay: SPR, MRIP^724-878 as analyte over immobilized LR; assay type: binding; details: Biacore 3000, 25°C, analyte MRIP^724-878 (dimeric) 85.6–0.7 μM, LR immobilized (244.8 RU), nebulin-derived peptide reference, 50 mM potassium phosphate pH 7.4, 100 mM KCl, steady-state affinity, mean and standard deviation, 6 experiments
Method: Analytes CCLR, CC, LR: Interactions between analytes, CCLR (167–1 μM), CC (318–10 μM), and LR (569–5 μM) with immobilized ligand, MRIP^724-878 (1800 RU) after correction for nonspecific binding using G-actin (2230 RU). Shown is a representative out of 9 experiments for CCLR and 8 for LR in each, duplicates or triplicates. Insets show fittings of steady-state affinity. Ligand LR: Interaction of analyte, MRIP^724-878 (85.6–0.7 μM) with immobilized ligand, LR (244.8 RU) after correction for nonspecific binding using a nebulin-derived peptide (600 RU). Shown is a representative out of 6 experiments.
This could be explained by the fact that free, solution-based MRIP^724-878 might have preserved homodimers better than the amine coupled. Consequently, we speculated that the MRIP^724-878 dimer might have higher MYPT1-binding affinity than its monomer.
Binding analyses of SPR were conducted on a Biacore 3000 (GE Healthcare) at 25°C. Sensor chips and reagents for immobilization (1-ethyl-3-(3-dimethylaminopropyl) carbodiimide, N-hydroxyl-succinimide, and ethanolamine) were purchased from GE Healthcare. Peptides were immobilized onto a CM5 sensor chip at 232–5841 resonance units (RU) using amine coupling. Binding studies were done using two-fold serial dilutions of the peptides in 50 mM potassium phosphate buffer (pH 7.4) containing 100 mM KCl. […]

[5] = AUC sedimentation velocity of MRIP peptides alone (molar mass, sedimentation coefficient, oligomeric state); assay type: physicochemical
Source text: The RMSD of the fit was 0.008.
(§1) The cDNA fragment encoding MRIP peptides were amplified using a full-length MRIP cDNA as a template with the following primer pairs: MRIP^545-878, 5’-[…]/5’[…]; MRIP^724-878, 5’-[…]/5’-[…]; MRIP^724-837, 5’-[…]/5’-[…]. The PCR products were ligated into pCR2.1-TOPO using the TA cloning system and sequenced in both directions. The IMPACT™ (Intein Mediated Purification with an Affinity Chitin-binding Tag) Kit (New England BioLabs) was used to express peptides in bacteria to obtain tag-free peptides. The PCR amplicon encoding MRIP peptides were fused in frame to the chitin binding domain of pTYB12 vector utilizing the NdeI/EcoRI restriction sites. The expression vectors for the MYPT1 peptides, CCLR (residues 924–1030), CC (residues 924–990), and LR (residues 991–1030) were constructed as described: In the reference literature, CCLR and LR were named CCLZ and LZ, respectively. Recombinant peptides were produced in Escherichia coli strain BL21 (DE3) and purified using chitin beads according to the manufacturer's protocol. For further purification, the eluent from chitin beads was loaded on a Vydac C8 reversed phase column and subjected to HPLC using an acetonitrile gradient. Purity and identity of the peptides were confirmed by polyacrylamide gel electrophoresis (PAGE) and mass spectrometry. For the mutagenesis study of LR, the wild-type and mutant LR peptides were synthesized, purified by reverse-phase HPLC, and lyophilized to dryness at the peptide core in Boston Biomedical Research Institute.
Sedimentation velocity experiments were done on a Beckman Instruments Optima XL-I analytical ultracentrifuge equipped with Rayleigh optics. The cells were equipped with sapphire windows and 12 mm charcoal-filled Epon centerpieces. Apparent sedimentation coefficient distribution patterns were computed by the time derivative method. Peptides were dialyzed against 50 mM potassium phosphate buffer (pH 7.4) containing 100 mM KCl, and 1 mM DTT at 4°C overnight and then subjected to AUC at 50,000 rpm and 20°C. Molar mass was computed from sedimentation velocity profiles using SedAnal, which uses a nonlinear least-squares curve fitting algorithm to fit data to solutions of the differential equation (the Lamm equation) describing sedimentation. Fits were performed on time difference data to remove the time-independent systematic baseline components. Values of s and D produced by the fitting procedure were substituted into the Svedberg equation to obtain the molar mass of the protein, M: M=RT/(1−ν¯ρ)s20,wo/D20,wo where ρ is the density of the buffer and ν¯ is the partial specific volume of the protein. Sednterp was employed to compute values of ρ and ν¯ from the amino acid sequence.

[6] = tested on: CCLR; assay: AUC interaction of MRIP peptides with MYPT1 peptide CCLR (residues 924–1030); assay type: binding; details: equimolar mixtures (MRIP^545-878 14 μM each; MRIP^724-878 30 μM each; MRIP^724-837 67 μM each) and 3-, 9-fold dilutions, pH 7.4, 100 mM KCl, 20°C
Method: AUC was performed to examine the interactions of MRIP^545-878, MRIP^724-878, or MRIP^724-837 individually with the MYPT1 peptide (residues 924–1030) containing a putative coiled coil domain (CC) and the leucine repeat region (LR), designated as CCLR.
Fig 3 All MRIP peptides bind to the C-terminal region of MYPT1, CCLR (residues 924–1030). Concentration-normalized time derivative g(s*) graphs of the MRIP peptides by themselves and in equimolar mixtures: Lines, CCLR (30 μM); +, individual MRIP peptides by themselves (MRIP^545-878, 14 μM; MRIP^724-878, 50 μM; MRIP^724-837, 67 μM); black filled-in circles, original equimolar mixtures (MRIP^545-878, 14 μM each; MRIP^724-878, 30 μM each; MRIP^724-837, 67 μM each); open circles, 3-fold dilutions; gray filled-in circles, 9-fold dilutions.
as §1, with “For the mutagenesis study of LR, the wild-type and mutant LR peptides were synthesized, purified by reverse-phase HPLC, and lyophilized to dryness at the peptide core in Boston Biomedical Research Institute.” left out

B1: GST-tagged full-length MRIP: full-length MRIP protein with GST-tag, expressed in bacteria (protein, UniProt Q6WCQ1 1-1025, looked up)
chain: MSAAKENPCRKFQANIFNKSKCQNCFKPRESHLLNDEDLTQAKPIYGGWLLLAPDGTDFDNPVHRSRKWQRRFFILYEHGLLRYALDEMPTTLPQGTINMNQCTDVVDGEGRTGQKFSLCILTPEKEHFIRAETKEIVSGWLEMLMVYPRTNKQNQKKKRKVEPPTPQEPGPAKVAVTSSSSSSSSSSSIPSAEKVPTTKSTLWQEEMRTKDQPDGSSLSPAQSPSQSQPPAASSLREPGLESKEEESAMSSDRMDCGRKVRVESGYFSLEKTKQDLKAEEQQLPPPLSPPSPSTPNHRRSQVIEKFEALDIEKAEHMETNAVGPSPSSDTRQGRSEKRAFPRKRDFTNEAPPAPLPDASASPLSPHRRAKSLDRRSTEPSVTPDLLNFKKGWLTKQYEDGQWKKHWFVLADQSLRYYRDSVAEEAADLDGEIDLSACYDVTEYPVQRNYGFQIHTKEGEFTLSAMTSGIRRNWIQTIMKHVHPTTAPDVTSSLPEEKNKSSCSFETCPRPTEKQEAELGEPDPEQKRSRARERRREGRSKTFDWAEFRPIQQALAQERVGGVGPADTHEPLRPEAEPGELERERARRREERRKRFGMLDATDGPGTEDAALRMEVDRSPGLPMSDLKTHNVHVEIEQRWHQVETTPLREEKQVPIAPVHLSSEDGGDRLSTHELTSLLEKELEQSQKEASDLLEQNRLLQDQLRVALGREQSAREGYVLQATCERGFAAMEETHQKKIEDLQRQHQRELEKLREEKDRLLAEETAATISAIEAMKNAHREEMERELEKSQRSQISSVNSDVEALRRQYLEELQSVQRELEVLSEQYSQKCLENAHLAQALEAERQALRQCQRENQELNAHNQELNNRLAAEITRLRTLLTGDGGGEATGSPLAQGKDAYELEVLLRVKESEIQYLKQEISSLKDELQTALRDKKYASDKYKDIYTELSIAKAKADCDISRLKEQLKAATEALGEKSPDSATVSGYDIMKSKSNPDFLKKDRSCVTRQLRNIRSKSVIEQVSWDT
modifications: full-length GST tag
precipitation [1]: precipitated after affinity purification

B2: MRIP: Myosin phosphatase-RhoA interacting protein (protein, UniProt Q6WCQ1 1-1025, looked up)
chain: B1 chain
modifications: full-length
interaction with full-length MYPT1 [2]: interacts with the full-length MYPT1

Kd [4]: 40 ± 19 µM
binding to CCLR (shift in g(s*) curves) [6]: bind to CCLR
B3: MRIP^724-878: recombinant tag-free MRIP peptide, residues 724–878; CC2-CC4 (protein)
chain: CERGFAAMEETHQKKIEDLQRQHQRELEKLREEKDRLLAEETAATISAIEAMKNAHREEMERELEKSQRSQISSVNSDVEALRRQYLEELQSVQRELEVLSEQYSQKCLENAHLAQALEAERQALRQCQRENQELNAHNQELNNRLAAEITRLRT
modifications: left off: chitin-binding domain (IMPACT kit, pTYB12), N-terminal, cleaved
notes: recombinant tag-free MRIP peptide, residues 724–878; CC2-CC4
concentration dependence of g(s*) curves [3]: superimposable, indicating concentration-independence
molar mass ([5]; AUC sedimentation velocity, SedAnal global fit to single component, single-species ideal model, 4.7–42.3 μM, 50 mM potassium phosphate pH 7.4, 100 mM KCl, 1 mM DTT, 20°C, CL 0.95): 38.2±0.3 kDa
oligomeric state in solution ([5]; AUC sedimentation velocity, pH 7.4, 100 mM KCl, 20°C): forms a tight dimer in solution
sedimentation coefficient ([5]; AUC sedimentation velocity, single component, single-species ideal model, 4.7–42.3 μM, pH 7.4, 100 mM KCl, 20°C, CL 0.95): 2.007±0.002 S
concentration dependence of g(s*) curves ([5]; AUC, MRIP^545-878 1.5–13.6 μM, MRIP^724-878 4.7–42.3 μM, MRIP^724-837 7.5–67.1 μM, pH 7.4, 20°C): no-concentration dependence and the presence of one species in solution
